Literature values in article PMC10317158.
Blank lines part the entries; values can stand above or below the substance they belong to.

Experiments:
[1] = molecular target: Sen1 NIM2 (Saccharomyces cerevisiae) (UniProt Q00416)
[2] = molecular target: RNA polymerase II CTD pSer2/5 peptide CTD (Saccharomyces cerevisiae) (UniProt P04050)
[3] = molecular target: Mpp6 NIM (Saccharomyces cerevisiae) (UniProt P53725)
[4] = molecular target: RNA polymerase II CTD pSer2 peptide CTD (Saccharomyces cerevisiae) (UniProt P04050)
[5] = molecular target: RNA polymerase II CTD pSer2/7 peptide CTD (Saccharomyces cerevisiae) (UniProt P04050)
[6] = molecular target: RNA polymerase II CTD pThr4 peptide CTD (Saccharomyces cerevisiae) (UniProt P04050)

Kd [1]: 1.75 µM
Kd [2]: 16 µM
Kd [3]: 13.6 µM
Substance: Nrd1 CID (from UniProt P53617)

Kd [4]: 115 µM
Substance: Pcf11 CID (from UniProt P39081)

Kd [5]: 1.6 µM
Kd [6]: 6 µM
Substance: Rtt103 CID (from UniProt Q05543)
